Here are results for ten molecules from patent publication US20120117670A1 (U3 PHARMA, published 2012).

The target of experiment [1] is T1, Human AXL-Fc (R&D Systems, #154-AL) (human, UniProt P30530 26-451).
T1 construct: Bought reagent; also called human AXL-Fc fusion protein; human AXL-Fc protein; not shown: Fc part of the bought fusion protein
T1 sequence: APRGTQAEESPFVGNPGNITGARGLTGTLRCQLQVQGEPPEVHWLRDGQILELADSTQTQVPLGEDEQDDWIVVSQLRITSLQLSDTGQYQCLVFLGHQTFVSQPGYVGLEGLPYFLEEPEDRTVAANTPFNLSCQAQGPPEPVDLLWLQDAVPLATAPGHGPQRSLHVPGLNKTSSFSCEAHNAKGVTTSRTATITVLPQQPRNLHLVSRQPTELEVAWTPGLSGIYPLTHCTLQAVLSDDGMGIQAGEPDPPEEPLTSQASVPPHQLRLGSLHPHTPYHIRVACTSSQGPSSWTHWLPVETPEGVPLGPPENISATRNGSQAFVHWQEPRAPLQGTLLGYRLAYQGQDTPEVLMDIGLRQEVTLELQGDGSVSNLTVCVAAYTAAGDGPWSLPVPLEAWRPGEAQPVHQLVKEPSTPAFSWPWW
The experiment is described as follows: ELISA on plate-adsorbed human AXL-Fc (1 ug/ml), 5-fold antibody dilution series, AP-conjugated goat anti-human IgG, fluorescent substrate (Example 13).

In experiment [2] the target is T1, Human AXL-Fc (R&D Systems, #154-AL). The experiment is described as follows: ELISA on plate-adsorbed human AXL-Fc (1 ug/ml), 5-fold antibody dilution series, AP-conjugated goat anti-human IgG, fluorescent substrate (Example 23). (In general: An ELISA detects its analyte on a solid surface through an enzyme-linked reagent.)
Experiment [3] deals with T2, human receptor tyrosine kinase AXL (human, UniProt P30530 26-894).
T2 construct: also called hAXL; human AXL on NIH3T3-AXL cI.7, RatI-AXL cI.2 and human cancer cell lines
T2 sequence: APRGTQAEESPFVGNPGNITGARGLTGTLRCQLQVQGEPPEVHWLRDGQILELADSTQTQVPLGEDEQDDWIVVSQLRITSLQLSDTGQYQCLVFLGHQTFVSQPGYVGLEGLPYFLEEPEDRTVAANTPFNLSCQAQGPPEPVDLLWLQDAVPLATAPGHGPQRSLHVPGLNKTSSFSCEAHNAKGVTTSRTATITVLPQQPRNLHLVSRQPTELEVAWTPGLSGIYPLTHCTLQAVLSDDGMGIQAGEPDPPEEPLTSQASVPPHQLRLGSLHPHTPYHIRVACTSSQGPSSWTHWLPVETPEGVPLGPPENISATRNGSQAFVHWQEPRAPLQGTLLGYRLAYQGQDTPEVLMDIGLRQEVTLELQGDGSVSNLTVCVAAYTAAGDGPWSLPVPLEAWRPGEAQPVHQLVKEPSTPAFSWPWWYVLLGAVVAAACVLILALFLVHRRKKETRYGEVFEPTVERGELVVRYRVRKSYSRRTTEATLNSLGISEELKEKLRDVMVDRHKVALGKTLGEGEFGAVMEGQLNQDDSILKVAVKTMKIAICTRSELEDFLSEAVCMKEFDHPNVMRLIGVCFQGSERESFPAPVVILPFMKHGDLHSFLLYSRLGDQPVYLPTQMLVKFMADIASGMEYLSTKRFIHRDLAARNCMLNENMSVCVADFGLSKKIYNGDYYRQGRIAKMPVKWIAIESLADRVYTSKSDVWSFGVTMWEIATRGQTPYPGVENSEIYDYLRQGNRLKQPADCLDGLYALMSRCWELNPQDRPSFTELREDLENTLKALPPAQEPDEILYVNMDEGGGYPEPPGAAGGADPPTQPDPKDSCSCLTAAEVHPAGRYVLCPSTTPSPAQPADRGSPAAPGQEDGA
As to the kind of experiment: FACS Scatchard on human AXL overexpressing NIH3T3 cells; apparent KD (KDapp). How it is done:
Human AXL overexpression NIH3T3 cells were harvested by incubation with 10 mM EDTA in PBS and resuspended at 6 million cells per ml in FACS buffer (PBS pH 7.4, 3% FCS, 0.1% NaN3). In a round-bottom microtiter plate, 100 μl of cell suspension were added to 100 μl of antibody solution containing antibodies 11B7, 11D5, ch11B7-IgG1, ch11B7-IgG2, ch11D5-IgG1 or ch11D5-IgG2 at concentrations between 40 and 0.002 μg/ml (266 and 0.01 nM) in FACS buffer. Antibody binding was allowed to proceed for 2 hours on ice. Then, cells were washed twice with 250 μl FACS buffer per well, and resuspended in 200 μl of secondary antibody (anti-rat-PE; Jackson) diluted 1:50 in FACS buffer. After 45 minutes of incubation, cells were again washed twice in FACS buffer and resuspended in […] PBS for FACS analysis. Analysis was carried out on a Beckman-Coulter FACS FC500. To determine the apparent affinity constant KDapp, mean fluorescence values were plotted against the ratio of mean fluorescence and the corresponding antibody concentration ([M]). The calculated KDapp resulted from the inverse slope of the straight line are listed below: […]

The target in experiment [4] is T3, NHis-hAXL26-131 (human AXL single IG domain) (human, UniProt P30530 33-138).
T3 construct: Made in E. coli; tag kept
As to the kind of experiment: ELISA on plate-adsorbed human AXL IG-domain fragment (1 ug/ml), antibody at 0.04 ug/ml, fluorescent substrate (Example 16). How it is done: Then, each solution was dispensed in the amount of […] to an Immuno Plate (manufactured by Nalge Nunc International K.K., #437111) and left standing overnight at 4° C. to adsorb the peptide onto the plate. On the next day, the wells were washed 5 times with a PBS-T solution (PBS and 0.05% (v/v) Tween 20). Then, a solution containing skim milk (manufactured by Morinaga Milk Industry Co., Ltd.) diluted with PBS to 5% was dispensed in an amount of 100 μl/well and left standing at room temperature for 2 hours. The solutions in the wells were removed, and the wells were washed 5 times with a PBS-T solution. The rat anti-human AXL monoclonal antibody #11B7 was diluted to 0.04 μg/ml with a PBS solution containing 0.5% skim milk. Then, the solution was dispensed in amount of 100 μl/well and left standing at room temperature for 2 hours. The wells were washed 5 times with a PBS-T solution. […] Then, a fluorescent substrate solution (manufactured by Roche Diagnostics K.K., #11681982001) was added in the amount of 100 μl/well to perform fluorescence reaction. The fluorescence intensity on the human AXL-IG domain-adsorbed plate was measured 15 minutes after the addition of the fluorescent substrate solution using a SpectraMax M5 (manufactured by Molecular Devices Corp.). […]

The target in experiment [5] is T1, Human AXL-Fc (R&D Systems, #154-AL). The experiment is described as follows: ELISA on plate-adsorbed human AXL-Fc (1 ug/ml), 5-fold antibody dilution series, AP-conjugated goat anti-human IgG, fluorescent substrate (Example 14).

Numbering of substitutions follows the chain as printed.

B1: h#11B7-T6 (antibody, human IgG1, kappa)
heavy: not shown
light: DIQMTQSPSSLSASVGDRVTITCRASQDIGNYLRWFQQKPGKAPKLMISGATNLAAGVPSRFSGSGSGSDYTLTISSLQPEDFATYYCLQSKESPWTFGQGTKVEIKRTVAAPSVFIFPPSDEQLKSGTASVVCLLNNFYPREAKVQWKVDNALQSGNSQESVTEQDSKDSTYSLSSTLTLSKADYEKHKVYACEVTHQGLSSPVTKSFNRGEC
notes: Humanized IgG1/kappa
What is called EC50 (read off the curve) is the concentration giving half of the maximal effect. A higher EC50 (read off the curve) goes with lower potency in that assay. For the molecule B1, the “EC50 (read off the curve)” value in experiment [1] was approximately 0.02 µg/mL.

B2: h#11B7-T29 (antibody, human IgG1, kappa)
heavy: not shown
light: B1 light with M47L, Y71F, V104L
notes: Humanized IgG1/kappa
B2: the “EC50 (read off the curve)” value in experiment [2] is approximately 0.04 µg/mL.

B3: h#11B7-T28 (antibody, human IgG1, kappa)
heavy: not shown
light: B1 light with M47L, V104L
notes: Humanized IgG1/kappa
Turning to B3, the “EC50 (read off the curve)” value in experiment [2] was approximately 0.04 µg/mL.

B4: h#11B7-T30 (antibody, human IgG1, kappa)
heavy: not shown
light: B1 light with M47L, V104L
notes: Humanized IgG1/kappa
Take B4: the concentration for a half-maximal effect (EC50 (read off the curve)) in experiment [2] is approximately 0.04 µg/mL.

B5: h#11B7-T31 (antibody, human IgG1, kappa)
heavy: not shown
light: B1 light with M47L, Y71F, V104L
notes: Humanized IgG1/kappa
Turning to B5, the “EC50 (read off the curve)” value in experiment [2] is approximately 0.04 µg/mL.

B6: chimeric anti-AXL antibody ch11B7-IgG1 (antibody, V domains shown)
VH: EVQLQESGPGLVKPSQSLSLTCSVTGYSITSNYWGWIRKFPGDKMEWMGYITYSGSTSYNPSLKSRISITRDTSKNQFFLQLNSVTSEDTATYYCAITTFYYWGQGVMVTVSS
VL: DIQMTQAPSSLPASLGDRVTITCRASQDIGNYLRWFQQKPGKSPRLMISGATNLAAGVPSRFSGSRSGSDYSLTISSLESEDMADYYCLQSKESPWTFGGGTKLELKR
notes: Rat/human chimera, human IgG1/kappa; also called chm11B7; chimeric anti-AXL mAb #11B7
For the molecule B6, in experiment [1], the “EC50 (read off the curve)” value was approximately 0.02 µg/mL. In addition, in experiment [3], the Kd came out at 0.6 nM.

B7: rat anti-human AXL monoclonal antibody #11B7 (antibody, rat IgG1, V domains shown)
VH: B6 VH
VL: B6 VL
notes: Rat IgG1/kappa from hybridoma; also called I11B7; rat anti-AXL antibody 11B7
As to B7, the Kd in experiment [3] worked out at 0.38 nM. Moreover, the binding result in experiment [4] is on record as “no binding (tested: 0.04 ug/ml)”.

B8: chimeric anti-AXL antibody ch11D5-IgG1 (antibody, V domains shown)
VH: EVQLQESGPGLVKPSQSLSLTCSVTGYSITSNYWGWIRKFPGNKMEWIGHITNSGNTTYNPSLKSRISISRDTSRNQFFLQLNSVTTEDTATYYCAKGAFDYWGQGVMVTVSS
VL: DIQMTQSPSSMSTSLGDRVTITCRASQDIGNYLSWFQQKVGKSPRRMIYGAIKLAVGVPSRFSGSRSGSDYSLTISSLESEDMAIYYCLQYIQFPLTFGSGTKLELKR
notes: Rat/human chimera, human IgG1/kappa; also called chm11D5; human chimeric antibody
With B8, the Kd in experiment [3] was determined as 0.4 nM. For the same molecule, in experiment [5], the “EC50 (read off the curve)” value was approximately 0.01 µg/mL.

B9: rat anti-human AXL monoclonal antibody #11D5 (antibody, rat IgG2a, V domains shown)
VH: B8 VH
VL: B8 VL
notes: Rat IgG2a/kappa from hybridoma; also called III11D5
In the case of B9, the Kd in experiment [3] was 0.81 nM.

B10: h#11B7-T2 (antibody, human IgG1, kappa, V domains shown)
VH: QIQLQESGPGLVKPSQTLSLTCAVSGYSITSNYWGWIRQPPGKGLEWMGYITYSGSTSYNPSLKSRISISVDTSKNQFSLKLSSVTAADTAVYYCAITTFYYWGQGTLVTVSS
VL: DIQMTQSPSSLSASVGDRVTITCRASQDIGNYLRWFQQKPGKAPKLMISGATNLAAGVPSRFSGTGSGTDYTFTISSLQPEDFATYYCLQSKESPWTFGGGTKVEIKR
notes: Humanized IgG1/kappa
For B10, in experiment [1], the “EC50 (read off the curve)” value was approximately 0.03 µg/mL.
